# Assay results reported in paper PMC10328973.
# Experiments:
# [1] = target: UKNP5.2.1 E2E1-I53-50A trimer (permuted HCV envelope glycoprotein, genotype 5) (hepatitis C virus, strain UKNP5.2.1 (genotype 5))
# [2] = target: UKNP5.2.1 E2E1-I53-50A trimer; experiment: ELISA; settings: read off a plot
# [3] = target: UKNP2.2.1 E2E1-I53-50A trimer; experiment: ELISA; settings: read off a plot
substance,measurement,setting,value
"AR3C (mature bNAb, IgG) (antibody)","Supplementary Figure 7b: IC50 of neutralization of UKNP5.2.1 HCVpp (% infectivity, serial dilution of IgG), AR3C IgG",[1],0.07 µg/mL
"HEPC3 (mature bNAb, IgG) (antibody)","Supplementary Figure 7b: IC50 of neutralization of UKNP5.2.1 HCVpp (% infectivity, serial dilution of IgG), HEPC3 IgG",[1],0.14 µg/mL
gl-AR3A F54L,other: AUC,[2]; parent: est. 3.4,1.4
same,other: AUC,[3]; parent: est. 0.001,0.001
gl-AR3A F54L; G50R,other: AUC,[2]; parent: est. 3.4,0.001
same,other: AUC,[3]; parent: est. 0.001,0.001
gl-AR3A G50R,other: AUC,[2]; parent: est. 3.4,0.001
same,other: AUC,[3]; parent: est. 0.001,0.001
gl-AR3C F54L,other: AUC,[2]; parent: est. 0.65,4.8
same,other: AUC,[3]; parent: est. 2.1,18
gl-AR3C F54L; G50R,other: AUC,[2]; parent: est. 0.65,0.001
same,other: AUC,[3]; parent: est. 2.1,0.001
gl-AR3C G50R,other: AUC,[2]; parent: est. 0.65,0.001
same,other: AUC,[3]; parent: est. 2.1,0.001
gl-HEPC74 F54L,other: AUC,[2]; parent: est. 0.010,0.03
same,other: AUC,[3]; parent: est. 1.0,1.9
gl-HEPC74 F54L; G50R,other: AUC,[2]; parent: est. 0.010,0.11
same,other: AUC,[3]; parent: est. 1.0,12
gl-HEPC74 G50R,other: AUC,[2]; parent: est. 0.010,0.04
same,other: AUC,[3]; parent: est. 1.0,7.4
